In patent publication US20230265151A1, “GIP/GLP1 CO-AGONIST COMPOUNDS” (priority 2020, published 2023):
Changes are numbered by the printed parent chain. *1 amine or outer side, *2 acyl side, *3 side chain or, on linkers, in order; H or OH if unused. Where no end group is shown, it is not given here. Side-chain parts run from the residue outwards. [ ]: non-standard residue; d: D form. The star is where a group is joined. Butanoyl(4-(4-tBuPh)) = CC(C)(C)c1ccc(CCCC(=O)*)cc1; γGlu = O=C(O)[C@H](CCC(=O)[*:2])N[*:1]; αMeY = C[C@](N)(Cc1ccc(O)cc1)C(=O)O; αMeF = C[C@](N)(Cc1ccccc1)C(=O)O; αMeL = CC(C)C[C@](C)(N)C(=O)O; Orn = NCCC[C@H](N)C(=O)O; AEEA = NCCOCCOCC(=O)O; Aib = CC(C)(N)C(=O)O

T1: human glucose-dependent insulinotropic polypeptide (GIP) receptor (human, UniProt P48546 22-466)
T1 sequence (looked up): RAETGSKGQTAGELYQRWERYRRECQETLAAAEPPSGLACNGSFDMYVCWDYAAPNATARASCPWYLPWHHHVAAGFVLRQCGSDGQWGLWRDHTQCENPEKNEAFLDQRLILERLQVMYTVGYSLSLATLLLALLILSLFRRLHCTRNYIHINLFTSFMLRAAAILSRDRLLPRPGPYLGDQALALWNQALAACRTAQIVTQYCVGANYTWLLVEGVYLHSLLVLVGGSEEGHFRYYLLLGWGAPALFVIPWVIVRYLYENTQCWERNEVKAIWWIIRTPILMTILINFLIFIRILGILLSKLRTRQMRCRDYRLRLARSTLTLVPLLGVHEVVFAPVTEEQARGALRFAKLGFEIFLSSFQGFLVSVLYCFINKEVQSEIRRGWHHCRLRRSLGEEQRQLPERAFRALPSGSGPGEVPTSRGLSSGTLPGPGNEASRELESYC

B1: Y-Aib-EGT-αMeF(2F)-TSD-4Pal-SI-αMeL-LD-Orn-K((2-[2-(2-Amino-ethoxy)-ethoxy]-acetyl)2-(10-(4-carboxyphenoxy)decanoyl))AQ-Aib-EFI-(D-Glu)-αMeY-LIEGGK((2-[2-(2-Ami … (peptide)
peptide: YXEGTXTSDXSIXLDXKAQXEFIXXLIEGGKSSGAPPPS
modifications: Aib2, αMeF(2F)6, 4Pal10, αMeL13, Orn16, Aib20, D-Glu24, αMeY25; acylated K17, K31 (groups as in name); C-terminal amide
B2: Y-Aib-EGT-αMeF(2F)-TSD-4Pal-SI-αMeL-LD-Orn-K((2-[2-(2-Amino-ethoxy)-ethoxy]-acetyl)3-(γ-Glu)-CO-(CH2)14-CH3)AQ-Aib-EFI-(D-Glu)-αMeY-LIEGGK((2-[2-(2-Amino-ethoxy … (peptide)
peptide: B1 peptide
modifications: Aib2, αMeF(2F)6, 4Pal10, αMeL13, Orn16, Aib20, D-Glu24, αMeY25; acylated K17, K31 (groups as in name); C-terminal amide
B3: Y-Aib-EGT-αMeF(2F)-TSD-4Pal-SI-αMeL-LD-Orn-K((εK)-(εK)-(γ-Glu)-CO-(CH2)12-CO2H)AQ-Aib-EFI-(D-Glu)-αMeY-LIEGGK((εK)-(εK)-(γ-Glu)-CO-(CH2)12-CO2H)SSGAPPPS-NH2 (peptide)
peptide: B1 peptide
modifications: Aib2, αMeF(2F)6, 4Pal10, αMeL13, Orn16, Aib20, D-Glu24, αMeY25; acylated K17, K31 (groups as in name); C-terminal amide
B4: Y-Aib-EGT-αMeF(2F)-TSD-4Pal-SI-αMeL-LD-Orn-K((2-[2-(2-Amino-ethoxy)-ethoxy]-acetyl)-(γ-Glu)-CO-(CH2)12-CO2H)AQ-Aib-EFI-(D-Glu)-αMeY-LIEGGK((2-[2-(2-Amino-ethoxy … (peptide)
peptide: B1 peptide
modifications: Aib2, αMeF(2F)6, 4Pal10, αMeL13, Orn16, Aib20, D-Glu24, αMeY25; acylated K17, K31 (groups as in name); C-terminal amide
B5: Y-Aib-EGT-αMeF(2F)-TSD-4Pal-SI-αMeL-LD-Orn-K((γ-Glu)-(2-[2-(2-Amino-ethoxy)-ethoxy]-acetyl)2-CO-(CH2)12-CO2H)AQ-Aib-EFI-(D-Glu)-αMeY-LIEGGK((γ-Glu)-(2-[2-(2-Ami … (peptide)
peptide: B1 peptide
modifications: Aib2, αMeF(2F)6, 4Pal10, αMeL13, Orn16, Aib20, D-Glu24, αMeY25; acylated K17, K31 (groups as in name); C-terminal amide
B6: Y-Aib-EGT-αMeF(2F)-TSD-4Pal-SI-αMeL-LD-Orn-K((2-[2-(2-Amino-ethoxy)-ethoxy]-acetyl)2-(γ-Glu)-CO-(CH2)14-CH3)AQ-Aib-K((2-[2-(2-Amino-ethoxy)-ethoxy]-acetyl)2-(γ- … (peptide)
peptide: B1 peptide with E21K, K31P
modifications: Aib2, αMeF(2F)6, 4Pal10, αMeL13, Orn16, Aib20, D-Glu24, αMeY25; acylated K17, K21 (groups as in name); C-terminal amide
B7: Y-Aib-EGT-αMeF(2F)-TSD-4Pal-SI-αMeL-LD-Orn-K((2-[2-(2-Amino-ethoxy)-ethoxy]-acetyl)2-(γ-Glu)-CO-(CH2)14-CH3)AQ-Aib-EFI-(D-Glu)-αMeY-LIEGGK((2-[2-(2-Amino-ethoxy … (peptide)
peptide: B1 peptide
modifications: Aib2, αMeF(2F)6, 4Pal10, αMeL13, Orn16, Aib20, D-Glu24, αMeY25; acylated K17, K31 (groups as in name); C-terminal amide
B8: Y-Aib-EGT-αMeF(2F)-TSD-4Pal-SI-αMeL-LD-Orn-K((2-[2-(2-Amino-ethoxy)-ethoxy]-acetyl)2-(γ-Glu)-CO-(CH2)14-CH3)AQ-Aib-EFIK((2-[2-(2-Amino-ethoxy)-ethoxy]-acetyl)2- … (peptide)
peptide: B1 peptide with X24K, K31P
modifications: Aib2, αMeF(2F)6, 4Pal10, αMeL13, Orn16, Aib20, αMeY25; acylated K17, K24 (groups as in name); C-terminal amide
B9: Y-Aib-EGT-αMeF(2F)-TSD-4Pal-SI-αMeL-LD-Orn-K((2-[2-(2-Amino-ethoxy)-ethoxy]-acetyl)2-(γ-Glu)-CO-(CH2)10-CO2H)AQ-Aib-EFI-(D-Glu)-αMeY-LIEGGK((2-[2-(2-Amino-ethox … (peptide)
peptide: B1 peptide
modifications: Aib2, αMeF(2F)6, 4Pal10, αMeL13, Orn16, Aib20, D-Glu24, αMeY25; acylated K17, K31 (groups as in name); C-terminal amide
B10: Y-Aib-EGT-αMeF(2F)-TSD-4Pal-SI-αMeL-LD-Orn-K((2-[2-(2-Amino-ethoxy)-ethoxy]-acetyl)-(γ-Glu)-(10-(4-carboxyphenoxy)decanoyl))AQ-Aib-EFI-(D-Glu)-αMeY-LIEGGK((2-[2 … (peptide)
peptide: B1 peptide
modifications: Aib2, αMeF(2F)6, 4Pal10, αMeL13, Orn16, Aib20, D-Glu24, αMeY25; acylated K17, K31 (groups as in name); C-terminal amide
B11: Y-Aib-EGT-αMeF(2F)-TSD-4Pal-SI-αMeL-LD-Orn-K((εK)-(2-[2-(2-Amino-ethoxy)-ethoxy]-acetyl)2-(γ-Glu)-CO-(CH2)12-CO2H)AQ-Aib-EFI-(D-Glu)-αMeY-LIEGGK((εK)-(2-[2-(2-A … (peptide)
peptide: B1 peptide
modifications: Aib2, αMeF(2F)6, 4Pal10, αMeL13, Orn16, Aib20, D-Glu24, αMeY25; acylated K17, K31 (groups as in name); C-terminal amide
B12: Y-Aib-EGT-αMeF(2F)-TSD-4Pal-SI-αMeL-LD-Orn-K((2-[2-(2-Amino-ethoxy)-ethoxy]-acetyl)2-(γ-Glu)-CO-(CH2)12-CO2H)AQ-Aib-K((2-[2-(2-Amino-ethoxy)-ethoxy]-acetyl)2-(γ … (peptide)
peptide: B1 peptide with E21K, K31P
modifications: Aib2, αMeF(2F)6, 4Pal10, αMeL13, Orn16, Aib20, D-Glu24, αMeY25; acylated K17, K21 (groups as in name); C-terminal amide
B13: Y-Aib-EGT-αMeF(2F)-TSD-4Pal-SI-αMeL-LD-Orn-K((2-[2-(2-Amino-ethoxy)-ethoxy]-acetyl)2-CO-(CH2)12-CO2H)AQ-Aib-EFI-(D-Glu)-αMeY-LIEGGK((2-[2-(2-Amino-ethoxy)-ethox … (peptide)
peptide: B1 peptide
modifications: Aib2, αMeF(2F)6, 4Pal10, αMeL13, Orn16, Aib20, D-Glu24, αMeY25; acylated K17, K31 (groups as in name); C-terminal amide
B14: Y-Aib-EGT-αMeF(2F)-TSD-4Pal-SI-αMeL-LD-Orn-K((εK)-(γ-Glu)-CO-(CH2)12-CO2H)AQ-Aib-EFI-(D-Glu)-αMeY-LIEGGK((εK)-(γ-Glu)-CO-(CH2)12-CO2H)SSGAPPPS-NH2 (peptide)
peptide: B1 peptide
modifications: Aib2, αMeF(2F)6, 4Pal10, αMeL13, Orn16, Aib20, D-Glu24, αMeY25; acylated K17, K31 (groups as in name); C-terminal amide
B15: Y-Aib-EGT-αMeF(2F)-TSD-4Pal-SI-αMeL-LD-Orn-K((2-[2-(2-Amino-ethoxy)-ethoxy]-acetyl)2-(γ-Glu)-CO-(CH2)12-CH3)AQ-Aib-EFI-(D-Glu)-αMeY-LIEGGK((2-[2-(2-Amino-ethoxy … (peptide)
peptide: B1 peptide
modifications: Aib2, αMeF(2F)6, 4Pal10, αMeL13, Orn16, Aib20, D-Glu24, αMeY25; acylated K17, K31 (groups as in name); C-terminal amide
B16: Y-Aib-EGT-αMeF(2F)-TSD-4Pal-SI-αMeL-LD-Orn-K((2-[2-(2-Amino-ethoxy)-ethoxy]-acetyl)2-(γ-Glu)-(4-(4-tert-butylphenyl)butanoyl))AQ-Aib-EFI-(D-Glu)-αMeY-LIEGGK((2- … (peptide)
peptide: B1 peptide
modifications: Aib2, αMeF(2F)6, 4Pal10, αMeL13, Orn16, Aib20, D-Glu24, αMeY25; acylated K17, K31 (groups as in name); C-terminal amide
B17: Y-Aib-EGT-αMeF(2F)-TSDK((2-[2-(2-Amino-ethoxy)-ethoxy]-acetyl)2-(γ-Glu)-CO-(CH2)12-CO2H)SI-αMeL-LD-Orn-K((2-[2-(2-Amino-ethoxy)-ethoxy]-acetyl)2-(γ-Glu)-CO-(CH2 … (peptide)
peptide: B1 peptide with X10K, K31P
modifications: Aib2, αMeF(2F)6, αMeL13, Orn16, Aib20, D-Glu24, αMeY25; acylated K10, K17 (groups as in name); C-terminal amide
B18: Y-Aib-EGT-αMeF(2F)-TSDK((2-[2-(2-Amino-ethoxy)-ethoxy]-acetyl)2-(γ-Glu)-CO-(CH2)14-CH3)SI-αMeL-LD-Orn-K((2-[2-(2-Amino-ethoxy)-ethoxy]-acetyl)2-(γ-Glu)-CO-(CH2) … (peptide)
peptide: B1 peptide with X10K, K31P
modifications: Aib2, αMeF(2F)6, αMeL13, Orn16, Aib20, D-Glu24, αMeY25; acylated K10, K17 (groups as in name); C-terminal amide
B19: Example 178 (peptide)
peptide: Y[Aib]EGT[αMeF]TSDV[Aib]I[αMeL]LD[Orn]K([AEEA-AEEA-γGlu-Butanoyl(4-(4-tBuPh))])AQ[Aib]EFI[dE][αMeY]LIEGGK([AEEA-AEEA-γGlu-Butanoyl(4-(4-tBuPh))])SSGAPPPS-NH2
modifications: N-terminus assumed
SMILES: CC[C@H](C)[C@H](NC(=O)[C@H](CC(C)C)NC(=O)[C@](C)(Cc1ccc(O)cc1)NC(=O)[C@@H](CCC(=O)O)NC(=O)[C@@H](NC(=O)[C@H](Cc1ccccc1)NC(=O)[C@H](CCC(=O)O)NC(=O)C(C)(C)NC(=O)[C@H](CCC(N)=O)NC(=O)[C@H](C)NC(=O)[C@H](CCCCNC(=O)COCCOCCNC(=O)COCCOCCNC(=O)CC[C@H](NC(=O)CCCc1ccc(C(C)(C)C)cc1)C(=O)O)NC(=O)[C@H](CCCN)NC(=O)[C@H](CC(=O)O)NC(=O)[C@H](CC(C)C)NC(=O)[C@](C)(CC(C)C)NC(=O)[C@@H](NC(=O)C(C)(C)NC(=O)[C@@H](NC(=O)[C@H](CC(=O)O)NC(=O)[C@H](CO)NC(=O)[C@@H](NC(=O)[C@](C)(Cc1ccccc1)NC(=O)[C@@H](NC(=O)CNC(=O)[C@H](CCC(=O)O)NC(=O)C(C)(C)NC(=O)[C@@H](N)Cc1ccc(O)cc1)[C@@H](C)O)[C@@H](C)O)C(C)C)[C@@H](C)CC)[C@@H](C)CC)C(=O)N[C@@H](CCC(=O)O)C(=O)NCC(=O)NCC(=O)N[C@@H](CCCCNC(=O)COCCOCCNC(=O)COCCOCCNC(=O)CC[C@H](NC(=O)CCCc1ccc(C(C)(C)C)cc1)C(=O)O)C(=O)N[C@@H](CO)C(=O)N[C@@H](CO)C(=O)NCC(=O)N[C@@H](C)C(=O)N1CCC[C@H]1C(=O)N1CCC[C@H]1C(=O)N1CCC[C@H]1C(=O)N[C@@H](CO)C(N)=O

Key:
Test in all cases: cell-based or functional assay
[1] = molecular target: human glucagon receptor (human, UniProt P47871 26-477)
[2] = molecular target: T1, human glucose-dependent insulinotropic …
[3] = molecular target: human glucagon-like peptide-1 (GLP-1) receptor (human, UniProt P43220 24-463)

Row | Binder | cAMP EC50 (1.0% HSA) [1] [µM] | further results
1 | B1 | > 9.95 | –
2 | B2 | > 9.95 | –
3 | B3 | > 9.95 | –
4 | B4 | > 9.95 | –
5 | B5 | > 9.95 | –
6 | B6 | > 9.95 | –
7 | B7 | > 9.95 | –
8 | B8 | > 9.95 | –
9 | B9 | > 9.95 | –
10 | B10 | > 9.95 | –
11 | B11 | > 9.95 | –
12 | B12 | > 9.95 | –
13 | B13 | > 9.95 | –
14 | B14 | > 9.95 | –
15 | B15 | > 9.95 | –
16 | B16 | > 9.95 | –
17 | B17 | > 9.95 | –
18 | B18 | > 9.95 | –
19 | B19 | – | cAMP EC50 [2]: 0.00011 µM; cAMP Emax [2]: 105%; cAMP EC50 [3]: 0.00022 µM
